Laboratory results from patent US20140289906A1, “Compositions Having Dicamba Decarboxylase Activity and Methods of Use” (priority 2013, published 2014).
“Also recorded” adds a separate entry of the source.

B1: 95 (protein, listed as Pseudomonas fluorescens)
chain: MAKKPRIDMHSHFFPRISEQEAAKFDANHAPWLQVSAKGDTGSIMMGKNNFRPVYQALWDPAFRIEEMDAQGVDVQVTCATPVMFGYTWEANKAAQWAERMNDFALEFAAHNPQRIKVLAQVPLQDLDLACKEASRAVAAGHLGIQIGNHLGDKDLDDATLEAFLTHCANEDIPILVHPWDMMGGQRMKKWMLPWLVAMPAETQLAILSLILSGAFERIPKSLKICFGHGGGSFAFLLGRVDNAWRHRDIVREDCPRPPSEYVDRFFVDSAVFNPGALELLVSVMGEDRVMLGSDYPFPLGEQKIGGLVLSSNLGESAKDKIISGNASKFFNINV
B2: 100 (protein, listed as Reinekea blandensis)
chain: MAIIDCHGHYTTTPKGVEDYRNAQKAAVAKDPSFKGEKGQVVVSDDEIRESIENNQLKMQRERGTDLTIFSPRASWMGHHIGNEYTSQFWTEHQNDLIRRVCDLFPKNFAPVAQLPQSPGVDPAKSVPEIVRTVEQMGFIGINLNPDPSGGYWKDTSLADRAFYPIYEKMVEYDIPAMIHVSAACNDCFHTTGSHYLGADTTGFQQLIMSDVFKDFPSLKIIIPHGGGAVPYHWGRFRGLMQDQGYAPLEESALKNIYFDTCVYHQRGIDLLLDIVPTQNILFASEMIGAVRGIDPETGHNFDDTKRYIDNNTALNAEEKAMIFEGNARRVFSRLKTD

Experiments:
[1] = 14C assay: 14CO2 capture from [14C]-carboxyl-labeled dicamba with IPTG-induced recombinant E. coli cells; conditions: for Dicamba Decarboxylase Activity: IPTG-induced recombinant E. coli cells, 14CO2 from [14C]-carboxyl-labeled dicamba; for Enzymatic Detection level: dicamba decarboxylation activity
[2] = Dicamba decarboxylation activity of computationally designed protein variants and parents (Tables 4, 5); conditions: native proteins and designed variants; assay not specified

| Molecule | Dicamba Decarboxylase Activity [1] | Enzymatic Detection level [1] | dicamba decarboxylase activity (statement in the description) [2] |
| --- | --- | --- | --- |
| B1 | No | No | not active for dicamba decarboxylation; also recorded: Neither of the native proteins have dicamba decarboxylase activity |
| B2 | No | No | Neither of the native proteins have dicamba decarboxylase activity |
